Test [1] addresses dominant-negative α7 nAChR α7_(345-8A) (UniProt P36544).
In test [2] the target is α7 nicotinic acetylcholine receptor (mouse (endogenous in EOC20)) (UniProt P49582).
For test [3], the target named is dominant-negative α7 nAChR α7_(345-8A) (UniProt P36544). This is another data set of the same source.
The target of test [4] is α7 nicotinic acetylcholine receptor (mouse (endogenous in EOC20)) (UniProt P49582). This is another data set of the same source.

Take “heterotrimeric G protein subunit Gαi (from UniProt P08752 1-355) (natural protein)”: the TNF-α release (ELISA of the medium), % change from baseline with LPS, LPS + 1 mM choline, EOC20 cells transfected with α7 (345-8A) in test [1] is -9.22%. The TNF-α release (ELISA of the medium), % change from baseline with LPS, LPS + 1 mM choline, EOC20 cells transfected with empty vector in test [2] is -25.8%. Further, in test [3], the peak of the intracellular calcium transient (GCaMP5G, % of baseline) on 3 mM choline, EOC20 cells transfected with α7 (345-8A) was 368%. For the same substance, the peak of the intracellular calcium transient (GCaMP5G, % of baseline) on 3 mM choline, EOC20 cells transfected with empty plasmid in test [4] turned out to be 580%.

(Values after PMC5586346.)
